Experimental findings from US20220259593A1, “CONTROL OF MAMMALIAN GENE DOSAGE USING CRISPR” (The Regents of the University of California, priority 2019, published 2022) are described below.

Positions count from the first letter of the chain named.

The test system of this data set is K562 CRISPRi cells. The data set is described as follows: Constant region variant library pooled growth screen, K562. The class given is cell-based, human. The method in brief: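 Relative activity expresses each targeting sequence:constant region pair's phenotype over that of the unmodified constant region. Pooled growth screen ran in K562 CRISPRi cells in duplicate spinner-flask replicates, with puromycin selection and 4–8 days' growth at >2000× coverage; library paired variants with 36 targeting sequences.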

Where [1] appears, read: sgRNA constant region variant, activity relative to unmodified constant region cr995, mean CRISPRi activity.
[2] abbreviates: sgRNA constant region variants, activity relative to the original, un-modified constant region cr995.

B1: cr248 (nucleic acid)
guide: GTTTAAGAGCTAAGCTGGAAACAGCATAGCAAGTTTAAATAACGCTAGTCGGTTATCAACTTGAAAAAGTGGCACCGAGTCGGTGCT
modifications: listed as DNA, chemistry not fully specified
The molecule B1 had a Mean relative activity under setting [1] of 0.01369.

B2: cr424 (nucleic acid)
guide: B1 guide with A74G, C75T, G83A, T84C
modifications: listed as DNA, chemistry not fully specified
Molecule B2 registered a Mean relative activity under setting [1] of 0.01319.

B3: cr445 (nucleic acid)
guide: B1 guide with C43G, G51C, C75T, G77C, C81T, G83C
modifications: listed as DNA, chemistry not fully specified
Under setting [1], B3 returned a Mean relative activity of 0.01078.

B4: cr628 (nucleic acid)
guide: B1 guide with C43G, G51C, C73T, G77A, C81T, G85A
modifications: listed as DNA, chemistry not fully specified
Under setting [2], B4 yielded a Mean relative activity of 1.033.

B5: cr111 (nucleic acid)
guide: B1 guide with G33C, C43G, G51C, C76A, G82T
modifications: listed as DNA, chemistry not fully specified
In turn, B5 displayed a Mean relative activity under setting [1] of 0.013.

B6: cr044 (nucleic acid)
guide: B1 guide with T3G, A8T, C43G, G51C
modifications: listed as DNA, chemistry not fully specified
B6: the Mean relative activity under setting [1] stood at 0.01046.

B7: cr024 (nucleic acid)
guide: B1 guide with G1T, T3G, C43G, G51C
modifications: listed as DNA, chemistry not fully specified
With B7, the Mean relative activity under setting [1] was determined as 0.01205.

B8: cr773 (nucleic acid)
guide: B1 guide with T34G, C43G, A47T, G51C, A64G
modifications: listed as DNA, chemistry not fully specified
As for B8, the Mean relative activity under setting [1] amounted to 0.01327.

B9: cr665 (nucleic acid)
guide: B1 guide with G33C, C43G, G51C, G72C, C86G
modifications: listed as DNA, chemistry not fully specified
On to B9, for which the Mean relative activity under setting [1] is 0.01294.

B10: cr103 (nucleic acid)
guide: B1 guide with A32T, C43G, G51C, G52T, T80G
modifications: listed as DNA, chemistry not fully specified
Consider B10, for which the Mean relative activity under setting [1] stood at 0.01259.

B11: cr613 (nucleic acid)
guide: B1 guide with C45G, G48C
modifications: listed as DNA, chemistry not fully specified
Regarding B11, under setting [1], the Mean relative activity was found to be 0.01125.

B12: cr509 (nucleic acid)
guide: B1 guide with C75A, G83T
modifications: listed as DNA, chemistry not fully specified
Under setting [1], B12 returned a Mean relative activity of 0.01061.

B13: cr337 (nucleic acid)
guide: B1 guide with A65G
modifications: listed as DNA, chemistry not fully specified
Molecule B13 showed a Mean relative activity under setting [1] of 0.01313.

B14: cr310 (nucleic acid)
guide: B1 guide with A41T, C43G, G51C, A66T
modifications: listed as DNA, chemistry not fully specified
As for B14, the Mean relative activity under setting [1] is recorded as 0.01363.

B15: cr475 (nucleic acid)
guide: B1 guide with A41T, C43G, G51C, A65T
modifications: listed as DNA, chemistry not fully specified
B15 returned a Mean relative activity under setting [1] of 0.0113.

B16: cr750 (nucleic acid)
guide: B1 guide with T34G, C43G, G51C, C60T, G69A
modifications: listed as DNA, chemistry not fully specified
Take B16: under setting [1], the Mean relative activity is 0.01125.

B17: cr268 (nucleic acid)
guide: B1 guide with T34G, C43G, G51C, C76A, G82T
modifications: listed as DNA, chemistry not fully specified
As to B17, the Mean relative activity under setting [1] was 0.01166.

B18: cr663 (nucleic acid)
guide: B1 guide with T34G, C43G, G51C, G77T, C81A
modifications: listed as DNA, chemistry not fully specified
In the case of B18, the Mean relative activity under setting [1] amounted to 0.01081.

B19: cr649 (nucleic acid)
guide: B1 guide with G33C, C43G, C45T, G48A, G51C
modifications: listed as DNA, chemistry not fully specified
Molecule B19 gave a Mean relative activity under setting [1] of 0.01138.

B20: cr524 (nucleic acid)
guide: B1 guide with C43G, G51C, A64T
modifications: listed as DNA, chemistry not fully specified
In the case of B20, the Mean relative activity under setting [2] was determined as 1.032.

B21: cr280 (nucleic acid)
guide: B1 guide with G33C, C43G, G51C, G72T, C86A
modifications: listed as DNA, chemistry not fully specified
Take B21: under setting [1], the Mean relative activity is recorded as 0.01273.

B22: cr860 (nucleic acid)
guide: B1 guide with T34C, C43A, G51T
modifications: listed as DNA, chemistry not fully specified
For B22, the Mean relative activity under setting [1] is reported as 0.01022.

B23: cr528 (nucleic acid)
guide: B1 guide with A31C, A32G, G33C, C43G, G51C
modifications: listed as DNA, chemistry not fully specified
Molecule B23 returned a Mean relative activity under setting [1] of 0.01243.

B24: cr332 (nucleic acid)
guide: B1 guide with G33T, T34A, C43G, G51C
modifications: listed as DNA, chemistry not fully specified
In turn, B24 yielded a Mean relative activity under setting [1] of 0.01145.

B25: cr191 (nucleic acid)
guide: B1 guide with G33C, C43G, G51C, C75G, G83C
modifications: listed as DNA, chemistry not fully specified
Turning to B25, under setting [1], the Mean relative activity was found to be 0.01358.

B26: cr079 (nucleic acid)
guide: B1 guide with T2G, T4C, C43G, G51C
modifications: listed as DNA, chemistry not fully specified
B26: the Mean relative activity under setting [1] is recorded as 0.01223.

B27: cr204 (nucleic acid)
guide: B1 guide with T34C, C43G, G44T, C50A, G51C
modifications: listed as DNA, chemistry not fully specified
In the case of B27, the Mean relative activity under setting [1] worked out at 0.01236.

B28: cr704 (nucleic acid)
guide: B1 guide with C43G, G51C, T70C
modifications: listed as DNA, chemistry not fully specified
As to B28, under setting [2], the Mean relative activity was determined as 1.033.

B29: cr949 (nucleic acid)
guide: B1 guide with T34G, C43G, G51C, A65T
modifications: listed as DNA, chemistry not fully specified
For the molecule B29, the Mean relative activity under setting [1] is recorded as 0.01022.
